Laboratory results from paper PMC7601681, “Human Serum Albumin Binds Native Insulin and Aggregable Insulin Fragments and Inhibits Their Aggregation” (Biomolecules, 2020).

What was measured:
[1] = system: albumins; details: cited from earlier work
Source text: Pyrene and its derivatives are very popular fluorescent markers used to study interactions with HSA [49, 50, 51, 52]. Despite the fact that there is differentiated localization of pyrene derivatives in HSA, these systems are commonly applied as fluorescent probes, due to the high sensitivity of their fine vibronic structure to changes in the environment (the Ham effect) and long fluorescence lifetimes. […] A similar trend was also observed for the complex of ...

[2] = target: T1, HSA (Homo sapiens, UniProt P02768); details: probe trapped inside HSA; cited from earlier work
T1 construct: purchased Sigma-Aldrich
Source text: The calculated value also confirmed existence of interactions between 2 and HSA with pyrene fragment presented on less polar environment inside protein. […] The binding constants 1.5 ± 0.3 × 10^6 dm^3 ...

[3] = Circular dichroism (CD) after incubation with HSA; assay type: physicochemical; details: 0.1 mg/mL, phosphate buffer pH 7.2, measured after 30 min, two and four days of incubation at 37 °C, 190–270 nm
Description: Samples were prepared by dissolving 1 mg of the analyzed peptide in phosphate buffer pH 7.2 (10 mL), to a final concentration of 0.1 mg/mL All measurements were carried out at room temperature using a quartz cuvette (1 mm path length, Hellma). The experimental settings were as follows: measurements range, 190–270 nm; data pitch, 5 nm; scanning mode, continuous; scanning speed, 100 nm/min; bandwidth, 3 nm; integration time, 1 s.
The CD spectra were recorded using a Jasco J-1500 instrument (Jasco, Cracow, Poland) and quartz cuvettes with 1 mm optical path lengths. The measurements were acquired in the range of 190–270 nm at ambient temperature by taking points every 5 nm, with a scan rate of 100 nm per min, an integration time of 1 s, and a bandwidth of 4 nm. The samples were prepared in phosphate buffer (0.1 M, pH 7.2) with a final concentration of 0.1 mg/mL.
Circular dichroism (CD) spectroscopy can be a very valuable source of information about differences in the secondary structure of peptides and proteins. It has been shown that all α-helical proteins show a strong minimum at 222 nm and 208–210 nm and a strong maximum at 191–193 nm. In the case of β-sheet protein, a single negative band may be observed in the 210–225 nm wavelength range and a strong positive band in the 190–200 nm wavelength range, although their intensities are noticeably lower than those for α-proteins. The CD spectra recorded for buffered solutions of insulin (4) and hot-spot fragments (5), (6) in the presence of HSA as well as for native insulin are presented in Figure 9a,b. The measurements were performed after 30 min (sample 0), and then after two and four days of incubation at 37 °C.

[4] = Congo Red (CR) UV-Vis aggregation assay; assay type: physicochemical; details: peptide 1.44 mM with HSA 1.44 mM, phosphate buffer pH 7.2, 7 days at 37.2 °C, then CR 45 μM for 3 days, UV-Vis 400–800 nm
Description: Insulin, peptides 5 and 6, and HSA (final concentration 2.88 mM), as well as each sample of the mixture of insulin, peptides 5 and 6) (1.44 mM) with HSA (1.44 mM), were incubated in phosphate buffer solution at pH 7.2 (1 mL) for 7 days at a temperature of 37.2 °C. Then, 1 mL of a solution of Congo Red dye (45 μM in phosphate buffer, pH 7.2) was added to each incubated sample. Incubation continued for another 3 days. During this time, spectroscopic measurements of all the samples were performed in the range of 400–800 nm. The UV-Vis spectra recorded on the first, second, and third days of incubation for all samples are shown in the Supplementary Material (Figures S1 and S2).
The UV-Vis measurements were carried out using a Hitachi spectrophotometer (Hitachi, Tokyo, Japan).

[5] = Thioflavin T (ThT) fluorescence aggregation assay; assay type: physicochemical; details: peptide 0.33 mM with HSA 0.33 mM, phosphate buffer pH 6.0, 7 days at 37.2 °C, then ThT for 3 days, λexc 440 nm, 470–600 nm
Description: Insulin, peptides 5 and 6, and HSA (final concentration 0.66 mM), as well as each sample of the mixture of insulin, peptides 5 and 6) (0.33 mM) with HSA (0.33 mM) were incubated in phosphate buffer solution, pH 6.0 (2 mL), for 7 days at a temperature of 37.2 °C. Then, 2 mL of a solution of Thioflavin T ([…] in phosphate buffer, pH 6.0) was added to the samples. Incubation continued for another 3 days. During this time, spectroscopic measurements of all samples were performed in the range of 470–600 nm, excitation wavelength 440 nm. The intensity of fluorescence spectra recorded on the first, second, and third days of incubation for all samples. are shown in the Supplementary Material (Figures S3 and S4).
The fluorescence intensity measurements were carried out using a FLUOROMAX-4 system from Horiba Scientific (Edison, NJ, USA), measurement range of 470–600 nm, excitation wavelength 440 nm.

[6] = Light microscopy of Congo Red stained aggregates; assay type: physicochemical; details: CR staining 3 days; for microscopic examination of CR-stained aggregates, in the presence of HSA: peptide 1.44 mM, HSA 0.30 mM, phosphate buffer 0.1 M pH 7.2, 7 days at 37.4 °C; for microscopic examination of CR-stained aggregates, without HSA: phosphate buffer 0.1 M pH 7.2, 7 days at 37 °C
Description: Microscopic studies were carried out for samples prepared in phosphate buffer (0.1 M, pH 7.2) incubated for 7 days at 37.4 °C. To 2 mL of H-LYQLENY-OH (5) and H-VEALYL-OH (6) (c = 2.88 mM) solution was added 2 mL of HSA solution (c = 0.60 mM). The final concentration of incubated peptides was equal to c = 1.44 mM, whereas, for plasma protein, it was 0.30 mM. Incubation was also performed for 4 mL of an HSA sample (c = 0.3 mM). After that period, 4 mL of CR solution (c = 45 μM in phosphate buffer, pH 7.2) was added to the all samples, which were incubated for another 3 days at room temperature.
The microscopic assays were performed for samples stained with Congo Red dye. The samples were transferred on a microscopic slide and visualized using a Delta Optical Genetic Pro (Warsaw, Poland) light microscope.

[7] = Time-resolved fluorescence decay of the pyrene label in buffer or TX-100 (no protein); assay type: physicochemical; details: [Py-Ins] 16.38 μM, λexc 337 nm, λem 405 nm; for <τ> average fluorescence lifetime: Equation (2); for A1 (amplitude of fast component, aggregate fraction) / A2 (amplitude of slow component, monomer) / τ1 (fast component, aggregate form) / τ2 (slow component, monomer form): bi-exponential fit
[8] = target: T1, HSA; test: Time-resolved fluorescence decay of the pyrene label in the presence of HSA; assay type: binding; details: for <τ> average fluorescence lifetime / A1 (amplitude of fast component, aggregate fraction) / A2 (amplitude of slow component, monomer) / τ1 (fast component, aggregate form) / τ2 (slow component, monomer form): 30 μM HSA in PBS, [Py-Ins] 16.38 μM, λexc 337 nm, λem 405 nm; for <τ> average fluorescence lifetime: Equation (2); for A1 (amplitude of fast component, aggregate fraction) / A2 (amplitude of slow component, monomer) / τ1 (fast component, aggregate form) / τ2 (slow component, monomer form): bi-exponential fit
Description: The solutions of HSA (concentration = 3 10^−5 M) were prepared by dissolving the protein in 0.01 M of phosphate buffer saline (PBS, [NaCl] = 150 mM), pH = 7.2. […] The prepared samples were used within 24 h. […] In order to ensure complete protein hydration, the solutions were stored at room temperature for at least 1 h before measurements. The samples for fluorescence measurements were saturated with argon or deaerated with a vacuum pump.
Time-resolved measurements of HSA fluorescence were performed using a flash photolysis system based on a GL-3300 nitrogen laser (Photon Technology International, Birmingham, NJ, USA) providing single light pulses with a wavelength of 337.1 nm, duration ~800 ps, and average energy 100 µJ. The detection system consisted of a Baush&Lomb monochromator (Rochester, NY, USA), Hamamatsu 1P28 photomultiplier, and a PS325 power supply system (Stanford Research, Sunnyvale, CA, USA). […] All experiments were carried out at room temperature (25 ± 1 °C) using quartz cells with an optical length of 1 cm.

[9] = Absorption spectra of the filtered HSA/Py-Ins complex on storage; assay type: physicochemical; details: [Py-Ins] 16.38 μM, [HSA] 30 μM, filtered through 0.2 µm syringe filter, spectra after 2, 4 and 6 days
Description: Broad absorption bands can indicate the presence of Py-Ins aggregates. Therefore, a solution of Py-Ins (1) complex with HSA was filtered through a 0.2 µm syringe filter in order to remove any Py-Ins aggregates, and the stability of the complex was tested for a further 6 days. […] This may indicate that the Py-Ins (1) conjugate was completely bound to the HSA, and that the protein has a protective role in the aggregation process. Additional confirmation of this was provided by the observed linear increase in Py-Ins absorbance for the samples diluted with 30 µM HSA solution (Figure 2, panel IIb).

In the case of O=C(O)CCCc1ccc2ccc3cccc4ccc1c2c34 [PBA, 4-(1-pyrene)butyric acid], the affinity for albumin [1] is given as “weak affinity”.
In the case of O=S(=O)(O)c1ccc2ccc3cccc4ccc1c2c34 [PSA, 1-pyrene sulfonic acid], the “binding constant, non-specific binding” value [2] is listed as 3.8 × 10^5 dm^3 mol^−1 and the “binding constant, specific receptor site” value [2] is listed as 6.5 × 10^6 dm^3 mol^−1.
In the case of c1cc2ccc3cccc4ccc(c1)c2c34 [Pyrene], the “binding constant with albumins” value ([1]; nonspecific binding, order of magnitude) is given as ~10^4 dm^3 mol^−1.
In the case of H-LYQLENY-OH [LYQLENY, H-LYQLENY-OH], the “secondary structure / amyloid formation in the presence of HSA by CD” value (“secondary structure / amyloid formation” for short) [3] is reported as “increase in the amount of the α-helix structure”, the “Congo Red assay of HSA complexes: absorbance change” value (from here on “Congo Red assay … absorbance change”) [4] is reported as “no decrease in absorbance typical for amyloid structures” and the “Thioflavin T assay of HSA complexes: fluorescence intensity” value (“Thioflavin T assay of HSA complexes” below) [5] is reported as “no increase in fluorescence intensity”. The “microscopic examination of CR-stained aggregates, in the presence of HSA” value [6] was “significantly less content of fibers characteristic for amyloid deposits” and the “microscopic examination of CR-stained aggregates, without HSA” value [6] was “typical amyloid fibers”.
With H-VEALYL-OH [VEALYL, H-VEALYL-OH] the “secondary structure / amyloid formation” value [3] was “prevents the formation of amyloid fibrils”, the “Congo Red assay … absorbance change” value [4] was “no decrease in absorbance typical for amyloid structures” and the “Thioflavin T assay of HSA complexes” value [5] was “no increase in fluorescence intensity”. For the same compound, the “microscopic examination of CR-stained aggregates, in the presence of HSA” value [6] was “significantly less content of fibers characteristic for amyloid deposits” and the “microscopic examination of CR-stained aggregates, without HSA” value [6] was “typical amyloid fibers”.
With “Py-Ins: derivative of human insulin labeled with 4-(1-pyrene)butyric acid” the “<τ> average fluorescence lifetime” value ([7]; 20 mM TX-100, filtered) was 161.2 ns, the “A1 (amplitude of fast component, aggregate fraction)” value ([7]; 20 mM TX-100, filtered) was 0.1 and the “A2 (amplitude of slow component, monomer)” value ([7]; 20 mM TX-100, filtered) was 0.9. The “τ1 (fast component, aggregate form)” value ([7]; 20 mM TX-100, filtered) was 18.2 ns, the “τ2 (slow component, monomer form)” value ([7]; 20 mM TX-100, filtered) was 162.0 ns and the “<τ> average fluorescence lifetime” value ([7]; 20 mM TX-100, non-filtered) was 147.9 ns. For the same compound, the “A1 (amplitude of fast component, aggregate fraction)” value ([7]; 20 mM TX-100, non-filtered) was 0.2, the “A2 (amplitude of slow component, monomer)” value ([7]; 20 mM TX-100, non-filtered) was 0.8 and the “τ2 (slow component, monomer form)” value ([7]; 20 mM TX-100, non-filtered) was 152.7 ns. For the same compound, the “A1 (amplitude of fast component, aggregate fraction)” value ([7]; PBS buffer, filtered) was 0.2, the “A2 (amplitude of slow component, monomer)” value ([7]; PBS buffer, filtered) was 0.8 and the “τ1 (fast component, aggregate form)” value ([7]; PBS buffer, filtered) was 20.1 ns. For the same compound, the “τ2 (slow component, monomer form)” value ([7]; PBS buffer, filtered) was 98.8 ns, the “<τ> average fluorescence lifetime” value ([7]; PBS buffer, non-filtered) was 86.6 ns and the “A1 (amplitude of fast component, aggregate fraction)” value ([7]; PBS buffer, non-filtered) was 0.5. For the same compound, the “A2 (amplitude of slow component, monomer)” value ([7]; PBS buffer, non-filtered) was 0.5, the “τ2 (slow component, monomer form)” value ([7]; PBS buffer, non-filtered) was 98.4 ns and the “<τ> average fluorescence lifetime” value ([8]; filtered) was 145.6 ns. For the same compound, the “A1 (amplitude of fast component, aggregate fraction)” value ([8]; filtered) was 0.2, the “A2 (amplitude of slow component, monomer)” value ([8]; filtered) was 0.8 and the “τ1 (fast component, aggregate form)” value ([8]; filtered) was 19.4 ns. For the same compound, the “τ2 (slow component, monomer form)” value ([8]; filtered) was 150.4 ns, the “<τ> average fluorescence lifetime” value ([8]; non-filtered) was 133.6 ns and the “A1 (amplitude of fast component, aggregate fraction)” value ([8]; non-filtered) was 0.4. For the same compound, the “A2 (amplitude of slow component, monomer)” value ([8]; non-filtered) was 0.6, the “τ1 (fast component, aggregate form)” value ([8]; non-filtered) was 19.1 ns and the “τ2 (slow component, monomer form)” value ([8]; non-filtered) was 143.8 ns. The aggregate fraction ([8]; diluted Py-Ins/HSA solutions, [Py-Ins]/[HSA] = 0.11, data not shown) was “about 20%” and the “stability of the HSA complex / aggregation: changes of absorption spectra on storage” value [9] was “no changes were observed”.
For “insulin: native human recombinant insulin (Sigma-Aldrich)”, the “secondary structure / amyloid formation” value [3] was “does not tend to form amyloid fibrils”, the “Congo Red assay … absorbance change” value [4] was “no decrease in absorbance typical for amyloid structures” and the “Thioflavin T assay of HSA complexes” value [5] was “no increase in fluorescence intensity”.
